Measurements reported in PMC8571522, “siRNA screening identifies METTL9 as a histidine Nπ-methyltransferase that targets the proinflammatory protein S100A9” (The Journal of Biological Chemistry, 2021).

Tests used:
[1] = target: T1, recombinant S100A9 prepared by cleavage of GST-S100A9, after the reaction with GST-METTL9 in the absence of … (mouse, UniProt P31725 1-113); experiment: pull-down; recombinant GST-cleaved S100A9 after an in vitro methylation reaction with GST-METTL9 in the presence or the absence of SAM, then binding to GST-S100A8 (Fig. S6); details: both partners purified
T1 construct: S100A9, mouse; also called GST-cleaved S100A9; mS100A9; source: E. coli BL21-CodonPlus (DE3)-RIL, purified (Glutathione Sepharose 4B), GST removed with PreScission Protease; incubated with GST-METTL9 in the absence of SAM
T1 sequence (looked up): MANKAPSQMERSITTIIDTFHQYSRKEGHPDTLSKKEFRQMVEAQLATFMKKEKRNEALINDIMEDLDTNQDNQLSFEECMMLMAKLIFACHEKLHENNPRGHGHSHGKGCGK

[2] = target: T2, recombinant S100A9 prepared by cleavage of GST-S100A9, methylated in vitro by GST-METTL9 in the presence of … (mouse, UniProt P31725 1-113, Nπ-methylhistidine at His-107); experiment: as above; details: both partners purified
T2 construct: S100A9, mouse; methylated at His-107 by METTL9; also called de novo methylated S100A9; methylated recombinant S100A9; source: E. coli BL21-CodonPlus (DE3)-RIL, purified (Glutathione Sepharose 4B), GST removed with PreScission Protease; in vitro methylation reaction with GST-METTL9 in the presence of SAM
T2 sequence (looked up): T1 sequence (looked up)

B1: GST-fused mouse S100A8 (natural protein, UniProt P27005 1-89, looked up)
chain: MPSELEKALSNLIDVYHNYSNIQGNHHALYKNDFKKMVTTECPQFVQNINIENLFRELDINSDNAINFEEFLAMVIKVGVASHKDSHKE
notes: S100A8, mouse; Held on glutathione beads in the pull-downs; also called GST-S100A8; mS100A8; source: E. coli BL21, purified (Glutathione Sepharose 4B)
- binding result [1]: binds
- binding result [2]: binds
